In the supplement of paper PMC10567573:

B1: FCHSD1 (parent)
chain: LEAAEVILEHAHRGEQTTSQVSWE
B2: PBXIP1 (parent)
chain: LQQLRARLQGLEADCVRGPDGVCL

Variants of: B1
Assay: protein stability index of a GFP-peptide fusion (GPS, HEK-293T) (PSI 1-6); higher = more stable
Details: c terminus: a fixed tail appended
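Further: lentivirally expressed fusions sorted by FACS into six bins by GFP to DsRed ratio, PSI derived from sequencing read proportions per bin multiplied by bin number.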

Protein stability index, by site and new letter:
E9: M 2.66 | N 3.8 | Q 3.45 | T 3.62 | S 4.4 | V 2.5 | R 3.39 | L 2.52 | C 3.04 | D 4.33 | W 2.05 | K 4.19 | F 2.54 | H 4.18 | I 1.86 | G 3.87 | Y 2.33
L1: T 5.34 | S 4 | I 4.12 | W 3.35 | F 3.33 | C 4.8 | V 4.7 | N 4.61 | R 4.52 | P 5.11 | D 4.42 | Y 5 | M 4.58 | E 4.55 | H 4.88 | K 4.67 | Q 4.92
H10: P 4.41 | C 3.63 | Y 3.15 | L 4.34 | G 3.87 | I 2.88 | K 4.48 | Q 4.88 | T 4.65 | M 3.15 | S 4.41 | V 3.92 | E 5.19 | F 3.05 | N 3.78
I7: A 4.71 | M 4.84 | E 4.64 | L 4.99 | Y 4.7 | W 4.24 | R 5.16 | C 4.28 | G 5.1 | N 5.08 | Q 4.55 | F 4.27 | P 4.89 | S 4.92 | D 5.62 | H 5.15 | V 4.75
V6: H 4.7 | N 5.66 | M 3.85 | K 4.16 | E 5.31 | R 4.48 | I 4.03 | Y 4.17 | D 5.52 | F 3.56 | L 3.95 | S 4.24 | P 5.66 | A 4.9 | Q 5.27 | G 5.35
A11: N 4.18 | M 4.46 | W 3.23 | G 4.14 | I 3.33 | T 3.04 | D 4.97 | P 5.38 | C 4.14 | E 4.69 | Q 4.11 | F 3.27 | H 4.05 | V 4.54 | R 4.71 | S 4.12 | L 4.77
A4: R 3.59 | I 2.56 | D 3.59 | H 4.46 | E 5.11 | G 5.06 | C 4.59 | V 3.15 | T 3.82 | P 5.19 | L 2.59 | Y 2.48 | M 2.35 | F 2.35 | N 4.52 | K 4.24
L8: T 5.09 | P 5.65 | V 4.83 | Q 5.5 | F 4 | Y 4.42 | D 5.35 | S 5.37 | W 4.31 | M 4.46 | G 5.23 | A 4.96 | C 4.93 | R 4.92 | I 4.46 | E 5.09 | H 4.74 | K 4.98
E5: A 2.84 | K 3.48 | F 2.29 | S 4.1 | T 4.38 | M 2.4 | R 4.22 | Q 4.2 | C 2.82 | L 1.11 | Y 2.01 | N 3.63 | I 2.18 | W 1.53 | H 3.6 | V 2.83 | D 4.31
A3: R 4.41 | C 4.92 | V 2.89 | L 3.71 | H 3.86 | G 4.53 | N 4.43 | D 5.14 | Y 3.6 | M 3.65 | S 5.35 | T 4.49 | I 2.88 | K 4.57 | E 4.74 | Q 4.79
E2: S 3.7 | M 3.79 | D 4.31 | N 4.42 | F 2.21 | Q 4.41 | A 3.94 | K 3.93 | P 4.32 | I 2.5 | R 3.84 | H 4.72 | T 3.6 | C 1.85

Variants of: B2
Assay: as above
Details: c terminus: a fixed tail appended

Protein stability index, by site and new letter:
G21: N 2.69 | Q 3.34 | I 1.75 | K 3.18 | Y 1.28
R7: W 2.28 | A 2.12 | V 2.03 | I 2.57 | Q 3.33 | T 2.52 | H 2.91 | D 3.89
D14: R 2.93
A6: S 3.27 | R 1.32 | H 2.47 | G 2.84 | I 1.43
R5: I 2.42 | Y 2.34 | E 3.78 | L 1.17 | F 2.14 | M 1.84 | T 3.04
C23: S 1.96 | A 2.2 | W 3.01 | M 2.23 | I 2.78 | N 1.65 | V 1.74
V22: F 1.34 | K 2.39 | G 1.78 | R 3.41 | C 1.84 | T 2.57 | S 3.23 | M 2.13
G10: A 1.24 | E 2.64
Q3: Y 1.4 | T 1.2 | L 1.93 | M 3.04 | A 1.98 | N 2.36 | K 1.97
L4: H 3.26 | Q 3.48 | E 3.75 | D 4.69 | P 2.42 | R 3.19
L24: V 1.79 | I 1.94 | W 2.15 | T 1.74 | Y 2.34 | N 3.04
G18: Y 1.93 | W 2.54 | I 1.87 | A 2.97 | H 2.39 | V 3.65 | M 2.32
L1: I 1.72 | N 2.96 | Y 2.22 | F 1.12 | C 2.92 | R 3.76 | P 4.19 | K 3.5
D20: A 2.03 | I 1.9 | P 1.5 | K 2.08 | W 1.84 | G 2.45 | Q 3.03
Q9: C 3.05 | E 1.6 | T 1.04 | R 1.17 | H 2.42 | P 2.8
L8: T 3.43 | D 3.58 | V 1.99 | E 5.35 | I 2.84 | F 2.29 | Q 3.36 | M 2.05 | W 2.24
A13: V 2.35 | I 1.34 | K 2.52 | Y 2.01 | G 1.87 | W 1.01 | S 2.29 | M 2.79
C15: Y 2.13 | S 2.16 | Q 1.99 | A 2.6
E12: H 1.35 | V 2.79
P19: Y 2.13 | K 1.98 | N 1 | S 1 | T 2.12 | V 2.65 | W 1.5 | D 2.23
L11: H 2.41 | G 4.24 | S 3.09 | M 2.75 | R 2.88 | Q 3.97 | K 3.69 | Y 2.75 | N 3.09
Q2: R 1.82 | T 2.61 | W 1.28 | Y 1.24 | L 1.41 | F 3.06
R17: M 1.79 | V 2.2 | C 2.04 | N 3.03 | P 3.52 | E 1.86 | Q 3.04 | W 1.81
V16: I 2.38 | W 1.46 | M 1.81 | E 3.21 | P 1.64 | N 2.62 | F 2.28 | Y 2.57 | Q 2.95 | L 1.59
